Assays:
CXCR4 = target: T1, CXCR4 (UniProt P61073 1-352, limits assumed); test: FACS on HEK293-CXCR4 cells
T1 construct: whole, on cells; also called HEK293-CXCR4

human CCR7 [1] = target: T2, human CCR7 (human, UniProt P32248 25-378); test: ELISA on CCR7-expressing VLPs, pH 5.8 buffer
T2 construct: The assay field tells which; also called hCCR7; NIH3T3.hCCR7
T2 sequence: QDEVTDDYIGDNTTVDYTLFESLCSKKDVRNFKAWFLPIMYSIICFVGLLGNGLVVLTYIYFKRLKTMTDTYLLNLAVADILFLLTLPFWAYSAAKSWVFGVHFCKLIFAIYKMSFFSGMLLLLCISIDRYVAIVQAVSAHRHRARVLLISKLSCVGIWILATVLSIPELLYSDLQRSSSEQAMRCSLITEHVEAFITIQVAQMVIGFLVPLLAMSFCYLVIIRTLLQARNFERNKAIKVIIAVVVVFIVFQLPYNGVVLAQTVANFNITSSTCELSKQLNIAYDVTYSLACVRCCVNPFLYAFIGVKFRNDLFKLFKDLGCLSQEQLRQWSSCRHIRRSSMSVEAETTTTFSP

CCR8 = target: T3, CCR8 (UniProt P51685 1-355, limits assumed); test: FACS on CHO-CCR8 cells
T3 construct: whole, on cells; also called CHO-CCR8

human CCR7 [2] = target: T2, human CCR7; test: FACS titration, human CD4+ T cells from PBMC
CCR9 = target: T4, CCR9 (UniProt P51686 1-369, limits assumed); test: FACS on PF382 cells (CCR7-/CCR9+/CCR6+)
T4 construct: whole, on cells; also called PF382 cells (CCR7-/CCR9+/CCR6+)
T4 sequence (looked up): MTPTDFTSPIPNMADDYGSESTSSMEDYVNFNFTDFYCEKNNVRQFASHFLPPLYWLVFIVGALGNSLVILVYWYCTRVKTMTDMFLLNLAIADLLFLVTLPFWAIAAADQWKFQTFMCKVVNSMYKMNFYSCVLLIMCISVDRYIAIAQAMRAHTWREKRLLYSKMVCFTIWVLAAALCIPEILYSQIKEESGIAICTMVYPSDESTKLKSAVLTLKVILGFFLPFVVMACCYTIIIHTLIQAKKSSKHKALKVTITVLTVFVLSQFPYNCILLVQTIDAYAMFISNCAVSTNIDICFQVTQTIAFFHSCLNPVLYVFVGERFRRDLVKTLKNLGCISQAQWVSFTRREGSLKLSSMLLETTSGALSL

CCR6 = target: T5, CCR6 (UniProt P51684 1-374, limits assumed); test: FACS on PF382 cells (CCR7-/CCR9+/CCR6+)
T5 construct: whole, on cells; also called PF382 cells (CCR7-/CCR9+/CCR6+)
T5 sequence (looked up): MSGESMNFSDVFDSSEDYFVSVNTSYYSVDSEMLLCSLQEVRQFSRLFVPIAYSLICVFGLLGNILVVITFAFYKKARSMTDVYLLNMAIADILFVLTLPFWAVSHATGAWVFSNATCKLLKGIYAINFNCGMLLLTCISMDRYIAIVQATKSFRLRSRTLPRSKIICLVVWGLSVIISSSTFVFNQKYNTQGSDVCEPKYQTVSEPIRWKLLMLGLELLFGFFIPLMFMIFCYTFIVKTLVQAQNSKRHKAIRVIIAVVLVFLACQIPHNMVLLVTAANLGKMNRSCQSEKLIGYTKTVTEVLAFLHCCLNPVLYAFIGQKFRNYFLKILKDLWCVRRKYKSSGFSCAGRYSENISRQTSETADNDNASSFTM

human CCR7 [3] = target: T2, human CCR7; test: ELISA on CCR7-expressing VLPs, Kd at pH 5.8 over Kd at pH 7.4
human CCR7 [4] = target: T2, human CCR7; test: ELISA on CCR7-expressing VLPs, pH 7.4 buffer

T3 sequence (P51685 whole entry): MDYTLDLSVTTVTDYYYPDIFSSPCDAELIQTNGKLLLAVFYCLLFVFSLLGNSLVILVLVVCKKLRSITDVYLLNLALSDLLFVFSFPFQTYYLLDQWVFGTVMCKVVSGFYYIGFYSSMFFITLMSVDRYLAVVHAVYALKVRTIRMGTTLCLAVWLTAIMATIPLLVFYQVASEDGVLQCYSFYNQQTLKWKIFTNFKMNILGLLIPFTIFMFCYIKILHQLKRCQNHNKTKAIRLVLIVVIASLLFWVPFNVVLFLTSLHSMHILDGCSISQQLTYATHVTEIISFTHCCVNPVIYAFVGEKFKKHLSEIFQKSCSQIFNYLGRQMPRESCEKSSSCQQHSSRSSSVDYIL
T1 sequence (P61073 whole entry): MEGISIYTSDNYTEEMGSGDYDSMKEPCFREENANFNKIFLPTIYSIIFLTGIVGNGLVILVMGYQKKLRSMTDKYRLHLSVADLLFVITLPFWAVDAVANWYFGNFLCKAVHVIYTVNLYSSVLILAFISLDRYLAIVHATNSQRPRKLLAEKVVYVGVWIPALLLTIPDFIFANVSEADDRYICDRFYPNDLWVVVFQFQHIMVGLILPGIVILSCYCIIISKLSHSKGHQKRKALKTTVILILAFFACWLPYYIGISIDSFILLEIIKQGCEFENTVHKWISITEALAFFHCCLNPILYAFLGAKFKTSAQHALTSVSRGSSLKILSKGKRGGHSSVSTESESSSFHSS

B1: 684E12 humanized CysMab (Fc Wild Type) (antibody, V domains shown)
VH: EVQLVESGGGLVKPGGSLRLSCAASGFTFSNFAMSWVRQAPGKGLEWVSTISTGGTYTYYPDSVKGRFTISRDNAKNSLYLQMNSLRAEDTAVYYCARRGYSGVDKWGQGTTVTVSS
VL: DVVMTQSPLSLPVTLGQPASISCKSGQSLLDSTGKTYLNWFLQRPGQSPRRLIYLVSKLDSGVPDRFSGSGSGTDFTLKISRVEAEDVGVYYCWQGTHFPQTFGGGTKLEIK
notes: Human IgG1 kappa with CysMab cysteines; also called Humanized CysMab antibody 684E12
CXCR4
  binding result: no binding (tested: 5 ug/ml)
Human CCR7 [1]
  Kd: 504 pM
CCR8
  binding result: no binding (tested: 5 ug/ml)
Human CCR7 [2]
  EC50: 6700 pM
CCR9
  binding result: no binding (tested: 5 ug/ml)
CCR6
  binding result: no binding (tested: 5 ug/ml)
Human CCR7 [3]
  fold change (pH 5.8/7.4): 13 fold
Human CCR7 [4]
  Kd: 37.4 pM

From patent US20230181756A1 (Novartis, published 2023)
